Publication PMC3742469
“And” between values parts separate entries of the source, which are not always exact repeats. Equal values may be shown once.

Experiments:
[1] = biological target: ATP synthase (complex V), human fibroblasts (human (endogenous in fibroblasts)) (UniProt P25705); assay: native gel or EMSA; clear native electrophoresis (CNE), 6-15% gradient gels, of digitonin-solubilised (4 g/g protein) mitochondria of human fibroblasts (control and patients) and ρ0 cells; western blot, in-gel activity staining, 2D CNE/SDS PAGE
[2] = biological target: CV lacking the mtDNA-coded subunits (ρ0 cells) (human (endogenous in 143B TK- ρ0 cells)) (UniProt P25705); assay: as above
[3] = biological target: respiratory chain complex IV, human fibroblasts (human (endogenous in fibroblasts)) (UniProt P13073); assay: as above
[4] = biological target: respiratory chain complex IV, rat heart (rat (endogenous in rat heart mitochondria)) (UniProt P10888); assay: native gel or EMSA; clear native electrophoresis (CNE), 6-15% gradient gels, of digitonin-solubilised (4 g/g protein) rat heart mitochondria; western blot, in-gel activity staining, 2D CNE/SDS PAGE and CNE/CNECBG

Q: For “ATP synthase (complex V), human fibroblasts (from UniProt P25705 44-553; P06576 48-529; P36542 26-298; P00846 1-226; P03928 1-68)”, which stoichiometry N [1] is on record?
A: 2 and 4

Q: For “CV lacking the mtDNA-coded subunits (ρ0 cells) (from UniProt P25705 44-553; P06576 48-529; P36542 26-298) (complex)”, which stoichiometry N [2] is on record?
A: 2 and 4

Q: Which stoichiometry N [3] does the source give for “respiratory chain complex IV, human fibroblasts (from UniProt P13073 23-169; P00395 1-513)” here?
A: 2

Q: “respiratory chain complex IV, rat heart (from UniProt P10888 23-169; P05503 1-514)” was tested. Which stoichiometry N [4] did it give?
A: 2
